Assays:
Assay type in all cases: cell-based, Saccharomyces cerevisiae
[1] = tested on: Hua2; assay: Deep mutational scanning of Abp1 SH3, Abp1-Hua2 DHFR-PCA (DMS score); settings: for HUA2_MTX2 (frequency normalized to the reference condition): Abp1 SH3 amino acid mutation; for HUA2_MTX2 (frequency normalized to the reference condition) / HUA2_MTX2 (frequencies normalized to the reference condition): MTX2; for HUA2_MTX2 (frequencies normalized to the reference condition): Abp1-Hua2 DHFR-PCA
Summary of the method: (§1)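 Abp1 SH3 variants from NNN codon saturation mutagenesis at all 58 positions were reintegrated genomically in yeast by CRISPR, pooled, and mated with DHFR F[3] prey strains. Diploids underwent two 72 h liquid DHFR-PCA selections at 30 °C, and mutant abundance was read by Illumina sequencing against the pre-selection reference.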

[2] = tested on: Hua2 and Lsb3; assay: Deep mutational scanning quadrant of Abp1 SH3 (Hua2 and Lsb3 DMS scores); settings: class of mutation by HUA2 and LSB3 DMS scores
[3] = tested on: Lsb3; assay: Deep mutational scanning of Abp1 SH3, Abp1-Lsb3 DHFR-PCA (DMS score); settings: for LSB3_MTX2 (frequency normalized to the reference condition): Abp1 SH3 amino acid mutation; for LSB3_MTX2 (frequency normalized to the reference condition) / LSB3_MTX2 (frequencies normalized to the reference condition): MTX2; for LSB3_MTX2 (frequencies normalized to the reference condition): Abp1-Lsb3 DHFR-PCA
Summary of the method: as §1

[4] = tested on: Hua2 and Lsb3; assay: Deep mutational scanning of Abp1 SH3: combined class (quadrant) from Abp1-Hua2 and Abp1-Lsb3 DHFR-PCA; settings: class by DMS scores with Hua2 and Lsb3 (Neutral, Dest. both, Dest. Hua2, Dest. Lsb3)
[5] = tested on: BOI2; assay: DHFR-PCA on solid medium, bait BOI2 (Fig. 1B); settings: bait BOI2, label = prey; 3-8 replicates
Text: (§2) Supplement 41467_2021_21873_MOESM8_ESM.xlsx, sheet "Fig1B" | column: medsize; medrep; Ratio; Score

[6] = tested on: BEM1-2; assay: DHFR-PCA on solid medium, bait BEM1-2 (Fig. 1B); settings: bait BEM1-2, label = prey; 2-8 replicates
Text: as §2

[7] = tested on: BBC1; assay: DHFR-PCA on solid medium, bait BBC1 (Fig. 1B); settings: bait BBC1, label = prey; 2-4 replicates
Text: as §2

[8] = tested on: 575 putative partners (preys) of 22 WT SH3-containing proteins; assay: DHFR-PCA on solid medium, WT and SH3-deleted baits (Fig. 1B); parameters: key to Score: 0: SH3-independent; 1: SH3-dependent PPIs; 2: SH3-inhibited PPIs
Summary of the method: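 In S. cerevisiae, 22 SH3-containing baits fused genomically to DHFR F[1,2], either WT or with each SH3 replaced via CRISPR by a poly-Gly/Ser linker, screened against 575 DHFR F[3] preys plus 40 negative controls in 1536 arrays, preys duplicated at randomized positions.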

[9] = tested on: BUD14; assay: DHFR-PCA on solid medium, bait BUD14 (Fig. 1B); settings: bait BUD14, label = prey; 4 replicates
Text: as §2

[10] = tested on: BOI1; assay: DHFR-PCA on solid medium, bait BOI1 (Fig. 1B); settings: bait BOI1, label = prey; 3-8 replicates
Text: as §2

[11] = tested on: BEM1-1; assay: DHFR-PCA on solid medium, bait BEM1-1 (Fig. 1B); settings: bait BEM1-1, label = prey; 2-8 replicates
Text: as §2

[12] = tested on: ABP1; assay: DHFR-PCA on solid medium, bait ABP1 (Fig. 1B); settings: bait ABP1, label = prey; 2-4 replicates
Text: as §2

[13] = tested on: BZZ1-1; assay: DHFR-PCA on solid medium, bait BZZ1-1 (Fig. 1B); settings: bait BZZ1-1, label = prey; 4 replicates
Text: Supplement 41467_2021_21873_MOESM8_ESM.xlsx, sheet "Fig1B" | column: medsize; medrep; Score

[14] = frequencies scaled to the synonymous mutation distribution, HUA2 prey
[15] = frequencies scaled to the synonymous mutation distribution, LSB3 prey
[16] = Hua2, frequencies scaled to the synonymous mutation distribution (DMS score)
[17] = Lsb3, frequencies scaled to the synonymous mutation distribution (DMS score)

B1: ABP1 A3A (protein, UniProt P15891 2-592, looked up)
Actin-binding protein: ALEPIDYTTHSREIDAEYLKIVRGSDPDTTWLIISPNAKKEYEPESTGSSFHDFLQLFDETKVQYGLARVSPPGSDVEKIIIIGWCPDSAPLKTRASFAANFAAVANNLFKGYHVQVTARDEDDLDENELLMKISNAAGARYSIQTSSKQQGKASTPPVKKSFTPSKSPAPVSKKEPVKTPSPAPAAKISSRVNDNNDDDDWNEPELKERDFDQAPLKPNQSSYKPIGKIDLQKVIAEEKAKEDPRLVQKPTAAGSKIDPSSDIANLKNESKLKRDSEFNSFLGTTKPPSMTESSLKNDDDKVIKGFRNEKSPAQLWAERKAKQNSGNAETKAEAPKPEVPEDEPEGEPDVKDLKSKFEGLAASEKEEEEMENKFAPPPKKSEPTIISPKPFSKPQEPVKAEEAEQPKTDYKKIGNPLPGMHIEADNEEEPEENDDDWDDDEDEAAQPPLPSRNVASGAPVQKEEPEQEEIAPSLPSRNSIPAPKQEEAPEQAPEEEIEEEAEEAAPQLPSRSSAAPPPPPRRATPEKKPKENPWATAEYDYDAAEDNELTFVENDKIINIEFVDDDWWLGELEKDGSKGLFPSNYVSLGN
modifications: synonymous A3A codon
HUA2_MTX2 (frequency normalized to the reference condition) ([1]; HUA2 prey): 1.172 | hua2sc (DMS score) [1, 14]: -0.4405 | quadrant [2]: Neutral | LSB3_MTX2 (frequency normalized to the reference condition) ([3]; LSB3 prey): 1.292 | lsb3sc (DMS score) [3, 15]: -0.2087

B2: ABP1 T4T (protein, UniProt P15891 2-592, looked up)
Actin-binding protein: ALEPIDYTTHSREIDAEYLKIVRGSDPDTTWLIISPNAKKEYEPESTGSSFHDFLQLFDETKVQYGLARVSPPGSDVEKIIIIGWCPDSAPLKTRASFAANFAAVANNLFKGYHVQVTARDEDDLDENELLMKISNAAGARYSIQTSSKQQGKASTPPVKKSFTPSKSPAPVSKKEPVKTPSPAPAAKISSRVNDNNDDDDWNEPELKERDFDQAPLKPNQSSYKPIGKIDLQKVIAEEKAKEDPRLVQKPTAAGSKIDPSSDIANLKNESKLKRDSEFNSFLGTTKPPSMTESSLKNDDDKVIKGFRNEKSPAQLWAERKAKQNSGNAETKAEAPKPEVPEDEPEGEPDVKDLKSKFEGLAASEKEEEEMENKFAPPPKKSEPTIISPKPFSKPQEPVKAEEAEQPKTDYKKIGNPLPGMHIEADNEEEPEENDDDWDDDEDEAAQPPLPSRNVASGAPVQKEEPEQEEIAPSLPSRNSIPAPKQEEAPEQAPEEEIEEEAEEAAPQLPSRSSAAPPPPPRRATPEKKPKENPWATAEYDYDAAEDNELTFVENDKIINIEFVDDDWWLGELEKDGSKGLFPSNYVSLGN
modifications: synonymous T4T codon change
HUA2_MTX2 (frequency normalized to the reference condition) ([1]; HUA2 prey): 1.763 | hua2sc (DMS score) [1, 14]: 0.1499 | quadrant [2]: Neutral | LSB3_MTX2 (frequency normalized to the reference condition) ([3]; LSB3 prey): 1.639 | lsb3sc (DMS score) [3, 15]: 0.1386

B3: ABP1 N27N (protein, UniProt P15891 2-592, looked up)
Actin-binding protein: ALEPIDYTTHSREIDAEYLKIVRGSDPDTTWLIISPNAKKEYEPESTGSSFHDFLQLFDETKVQYGLARVSPPGSDVEKIIIIGWCPDSAPLKTRASFAANFAAVANNLFKGYHVQVTARDEDDLDENELLMKISNAAGARYSIQTSSKQQGKASTPPVKKSFTPSKSPAPVSKKEPVKTPSPAPAAKISSRVNDNNDDDDWNEPELKERDFDQAPLKPNQSSYKPIGKIDLQKVIAEEKAKEDPRLVQKPTAAGSKIDPSSDIANLKNESKLKRDSEFNSFLGTTKPPSMTESSLKNDDDKVIKGFRNEKSPAQLWAERKAKQNSGNAETKAEAPKPEVPEDEPEGEPDVKDLKSKFEGLAASEKEEEEMENKFAPPPKKSEPTIISPKPFSKPQEPVKAEEAEQPKTDYKKIGNPLPGMHIEADNEEEPEENDDDWDDDEDEAAQPPLPSRNVASGAPVQKEEPEQEEIAPSLPSRNSIPAPKQEEAPEQAPEEEIEEEAEEAAPQLPSRSSAAPPPPPRRATPEKKPKENPWATAEYDYDAAEDNELTFVENDKIINIEFVDDDWWLGELEKDGSKGLFPSNYVSLGN
modifications: synonymous change N27N in SH3 domain
quadrant [4]: Neutral | HUA2_MTX2 (frequencies normalized to the reference condition) [1]: 1.61 | hua2sc (DMS score) [1, 16]: -0.002773 | LSB3_MTX2 (frequencies normalized to the reference condition) [3]: 1.694 | lsb3sc (DMS score) [3, 17]: 0.1932

B4: ABP1 I25I (protein, UniProt P15891 2-592, looked up)
Actin-binding protein: ALEPIDYTTHSREIDAEYLKIVRGSDPDTTWLIISPNAKKEYEPESTGSSFHDFLQLFDETKVQYGLARVSPPGSDVEKIIIIGWCPDSAPLKTRASFAANFAAVANNLFKGYHVQVTARDEDDLDENELLMKISNAAGARYSIQTSSKQQGKASTPPVKKSFTPSKSPAPVSKKEPVKTPSPAPAAKISSRVNDNNDDDDWNEPELKERDFDQAPLKPNQSSYKPIGKIDLQKVIAEEKAKEDPRLVQKPTAAGSKIDPSSDIANLKNESKLKRDSEFNSFLGTTKPPSMTESSLKNDDDKVIKGFRNEKSPAQLWAERKAKQNSGNAETKAEAPKPEVPEDEPEGEPDVKDLKSKFEGLAASEKEEEEMENKFAPPPKKSEPTIISPKPFSKPQEPVKAEEAEQPKTDYKKIGNPLPGMHIEADNEEEPEENDDDWDDDEDEAAQPPLPSRNVASGAPVQKEEPEQEEIAPSLPSRNSIPAPKQEEAPEQAPEEEIEEEAEEAAPQLPSRSSAAPPPPPRRATPEKKPKENPWATAEYDYDAAEDNELTFVENDKIINIEFVDDDWWLGELEKDGSKGLFPSNYVSLGN
modifications: synonymous codon change I25
quadrant [4]: Neutral | HUA2_MTX2 (frequencies normalized to the reference condition) [1]: 1.723 | hua2sc (DMS score) [1, 16]: 0.1101 | LSB3_MTX2 (frequencies normalized to the reference condition) [3]: 1.319 | lsb3sc (DMS score) [3, 17]: -0.181

B5: ABP1 E29E (protein, UniProt P15891 2-592, looked up)
Actin-binding protein: ALEPIDYTTHSREIDAEYLKIVRGSDPDTTWLIISPNAKKEYEPESTGSSFHDFLQLFDETKVQYGLARVSPPGSDVEKIIIIGWCPDSAPLKTRASFAANFAAVANNLFKGYHVQVTARDEDDLDENELLMKISNAAGARYSIQTSSKQQGKASTPPVKKSFTPSKSPAPVSKKEPVKTPSPAPAAKISSRVNDNNDDDDWNEPELKERDFDQAPLKPNQSSYKPIGKIDLQKVIAEEKAKEDPRLVQKPTAAGSKIDPSSDIANLKNESKLKRDSEFNSFLGTTKPPSMTESSLKNDDDKVIKGFRNEKSPAQLWAERKAKQNSGNAETKAEAPKPEVPEDEPEGEPDVKDLKSKFEGLAASEKEEEEMENKFAPPPKKSEPTIISPKPFSKPQEPVKAEEAEQPKTDYKKIGNPLPGMHIEADNEEEPEENDDDWDDDEDEAAQPPLPSRNVASGAPVQKEEPEQEEIAPSLPSRNSIPAPKQEEAPEQAPEEEIEEEAEEAAPQLPSRSSAAPPPPPRRATPEKKPKENPWATAEYDYDAAEDNELTFVENDKIINIEFVDDDWWLGELEKDGSKGLFPSNYVSLGN
modifications: synonymous codon change E29E
quadrant [4]: Neutral | HUA2_MTX2 (frequencies normalized to the reference condition) [1]: 1.834 | hua2sc (DMS score) [1, 16]: 0.2208 | LSB3_MTX2 (frequencies normalized to the reference condition) [3]: 1.788 | lsb3sc (DMS score) [3, 17]: 0.2879

B6: YIL033C (protein, UniProt P07278 2-416, looked up)
cAMP-dependent protein kinase …: VSSLPKESQAELQLFQNEINAANPSDFLQFSANYFNKRLEQQRAFLKAREPEFKAKNIVLFPEPEESFSRPQSAQSQSRSRSSVMFKSPFVNEDPHSNVFKSGFNLDPHEQDTHQQAQEEQQHTREKTSTPPLPMHFNAQRRTSVSGETLQPNNFDDWTPDHYKEKSEQQLQRLEKSIRNNFLFNKLDSDSKRLVINCLEEKSVPKGATIIKQGDQGDYFYVVEKGTVDFYVNDNKVNSSGPGSSFGELALMYNSPRAATVVATSDCLLWALDRLTFRKILLGSSFKKRLMYDDLLKSMPVLKSLTTYDRAKLADALDTKIYQPGETIIREGDQGENFYLIEYGAVDVSKKGQGVINKLKDHDYFGEVALLNDLPRQATVTATKRTKVATLGKSGFQRLLGPAVDVLKLNDPTRH
medrep (log2 median colony size normalized to plate background, PCA score) [5]: 1.723 | medrep (log2 median colony size normalized to plate background, PCA score) [6]: 1.8558 | medrep (log2 median colony size normalized to plate background, PCA score) [7]: 2.137 | medrep (log2 median colony size normalized to plate background, PCA score) ([8]; bait SLA1-3, DHFR-PCA, label = prey, Replicates 4 (2 for YCR009C, YDR388W, YIL033C)): 2.8 | Score ([8]; bait SLA1-3, label = prey): 0 | medrep (log2 median colony size normalized to plate background, PCA score) [9]: 1.967 | medrep (log2 median colony size normalized to plate background, PCA score) [10]: 2.0471 | medrep (log2 median colony size normalized to plate background, PCA score) [11]: 1.8558 | medrep (log2 median colony size normalized to plate background, PCA score) [12]: 3.25 | medrep (log2 median colony size normalized to plate background, PCA score) [13]: 2.099

— publication PMC7954794, “Protein context shapes the specificity of SH3 domain-mediated interactions in vivo” (Nature Communications, 2021)
